The source of these data is patent publication US8105799B2, “Methods of screening compounds inhibiting signal transduction through inflammatory cytokines” (Chugai Seiyaku Kabushiki Kaisha, priority 1998, dated 2012).

Test [1] deals with peritoneal macrophages. Description: IL-6 production by IL-1α-stimulated peritoneal macrophages expressing TAK1-DN. It counts as cell-based. Conditions: IL-1α 10 ng/ml, 24 hours; TAK1-DN Tgm-derived macrophages compared with wild-type mouse-derived macrophages; ELISA; FIG. 5. As to the method:
(§1) Specifically, 10 ml of ice-cold PBS solution containing 0.36% sodium citrate was injected into the peritoneal cavity of a TAK1-DN-expressing transgenic mouse (TAK1-DN Tgm) or a C57BL/6 mouse (wild-type mouse) of the same weeks of age. The mouse was given a massage for 30 seconds, and then the solution was recovered from the mouse. The solution recovered was centrifuged, and the precipitated cells were resuspended in RPMI1640 (GIBCO-BRL) containing 10% FBS (GIBCO-BRL). The cells were plated in wells at a cell density of 5×10^4/well. The cells were cultured at 37° C. for 2 hours, and floating cells were removed by washing with media. Cells adsorbed on the culture plate were used as peritoneal macrophages.
(§2) LPS, at a final concentration of 10 μg/ml, or IL-1α (Genzyme), at a final concentration of 10 ng/ml, was added to the above-prepared peritoneal macrophages, and the cells were further cultured for 24 hours. The culture supernatant was recovered. Then, the amounts of IL-1β in the culture supernatant of LPS-stimulated macrophages and IL-6 in the culture supernatant of IL-1α-stimulated macrophages were assayed by ELISA kits (Genzyme).
(In general: In an ELISA, binding on a coated surface is turned into a signal by an enzyme label.)

Test [2] concerns peritoneal macrophages. Briefly: Cytokine production by LPS-stimulated peritoneal macrophages expressing TAK1-DN. Particulars: LPS 10 μg/ml, 24 hours, TAK1-DN Tgm-derived macrophages compared with wild-type mouse-derived macrophages, FIG. 4. It counts as cell-based. As for the experimental part: as §1, §2
Test [3] deals with T1, TAB1 (Homo sapiens, UniProt Q15750).
T1 construct: expressed in transfected cells; host or cells: CHO cells transfected with pVP16-C68
T1 sequence (Q15750 437-504): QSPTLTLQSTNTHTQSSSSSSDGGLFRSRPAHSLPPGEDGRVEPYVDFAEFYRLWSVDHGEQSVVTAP
Briefly: Animal cell two-hybrid assay in CHO cells (luciferase reporter). It counts as cell-based, hamster. Conditions: pM-TAK1DN with pVP16-C68 (TAB1C68), 72 hours, FIG. 7. The source says:
The animal cell two-hybrid system (Dang et al., (1991) Mol. Cell. Biol. 11, 954-962) using TAB1 peptide and TAK1 peptide was used to analyze whether or not a peptide (TAK1-DN) from Glu at amino acid 77 to Gln at amino acid 303 in the TAK1 peptide of SEQ ID NO: 2 is capable of inhibiting the binding between TAK1 peptide and TAB1 peptide and further capable of inhibiting TAK1 peptide activation in animal cells.
First, each of genes encoding full-length TAK1 and TAK1-DN was ligated with the gene encoding GAL4 DNA-binding domain (GAL4-BD) to prepare an expression vector. The gene encoding full-length TAK1 was obtained from yeast two-hybrid expression plasmid pBTMHu11F (Shibuya H. et al., (1996) 272, 1179-1182) by digesting it with restriction enzymes EcoRI and PstI. Subsequently, the gene was ligated between EcoRI and PstI sites of an expression vector pM (CLONTECH) containing the GAL4-BD gene to obtain an animal cell two-hybrid expression plasmid pM-TAK1. […]
The culture further continued for 72 hours, and then luciferase activities in each cell extract were assayed by using Dual-Luciferase™ Reporter Assay System (Promega). […] The efficiency of gene introduction was normalized by using measured values for the activity of Renilla luciferase derived from the introduced pRL-SV40.
(In a reporter assay the amount or activity of a reporter protein is the signal.)

Test [4] concerns IκBα degradation by proteasome (NFκB activation). Description: IκBα degradation in TAK1-DN expressing peritoneal macrophages stimulated by LPS and IL-1α (Western blot). It counts as cell-based, mouse. Particulars: 30 and 60 minutes, TAK1-DN Tgm-derived macrophages, FIG. 6. As for the experimental part: The macrophages derived from wild-type mice and from TAK1-DN Tgm, which were prepared as described above, were stimulated by LPS or IL-1, and the time course of degradation of IκBα by proteasome was monitored (0, 30, and 60 minutes). Specifically, the peritoneal macrophages were cultured in wells of a 96-well plate at a cell density of 1×10^6/well. LPS (1 μg/ml) or IL-1α (10 ng/ml) was added to the culture in the presence or absence of proteasome inhibitor MG132 (40 μM). The cells were harvested after 30 or 60 minutes.
The cells were washed with PBS (−), and then a lysis buffer was added thereto for the preparation of cell lysate. An aliquot of each lysate corresponding to about 2×10^5 cells was subjected to gel electrophoresis by 9% SDS-PAGE. The fractionated proteins were blotted onto a nitrocellulose membrane and then incubated with anti-IκBα antibody (SantaCruz) as a primary antibody for 1.5 hours. After wash, horseradish peroxidase-conjugated goat anti-rabbit antibody was used as a secondary antibody. After the reaction of the secondary antibody, the reaction product was detected by using ECL (Amersham).
Background: A western blot detects proteins with antibodies after separation by electrophoresis.

B1: TAK1-DN: TAB1-binding region of TAK1, amino acid 77 Glu to amino acid 303 Gln of SEQ ID NO: 2; dominant negative inhibitor (protein, listed as Homo sapiens)
chain: ELRQLSRVNHPNIVKLYGACLNPVCLVMEYAEGGSLYNVLHGAEPLPYYTAAHAMSWCLQCSQGVAYLHSMQPKALIHRDLKPPNLLLVAGGTVLKICDFGTACDIQTHMTNNKGSAAWMAPEVFEGSNYSEKCDVFSWGIILWEVITRRKPFDEIGGPAFRIMWAVHNGTRPPLIKNLPKPIESLMTRCWSKDPSQRPSMEEIVKIMTHLMRYFPGADEPLQYPCQ
For the molecule B1, the “induction of IL-6 production by IL-1 stimulation” value in test [1] is on record as “significantly inhibited”. Moreover, in test [2] (ELISA), the “induction of production of IL-1β” value is on record as “significantly inhibited”. For the same molecule, the “induction of production of IL-6” value in test [2] is “significantly inhibited”. Further, the “induction of production of TNF” value in test [2] is recorded as “significantly inhibited”. Moreover, in test [3], the “luciferase activity (binding to TAB1)” value is “capable of binding to TAB1”. Besides, the “degradation of IκBα” value in test [4] (IL-1α 10 ng/ml) and in test [4] (LPS 1 μg/ml) was “no remarkable degradation of IκBα” each time.
